# Tests used:
# [1] = target: MtdL E341K mutant (Marinactinospora thermotolerans SCSIO 00652); assay: SEC-MALS; static light scattering (SLC): Superdex 200 Increase column on an Akta Pure L system, on-line eight-angle static light scattering detector (DAWN HELEOS II) and differential refractive index detector; molar masses by ASTRA 7.0.1
# [2] = target: MtdL wildtype, His6-tagged (Marinactinospora thermotolerans SCSIO 00652); assay: as above
Substance,stoichiometry N [1],stoichiometry N [2]
MtdL E341K mutant (enzyme),2,
"MtdL wildtype, His6-tagged (enzyme)",,4
